Experimental data as given in PMC11662680.
Like-named read-outs stand apart in the source and are kept apart here.

Legend:
[1] = molecular target: CapW from Rhizobium leguminosarum (Rhizobium leguminosarum); experiment: crystal structure
Ec CapW R200A [2] = molecular target: T1, Ec CapW R200A (Escherichia coli upec-117, UniProt P0DX76 1-299, R200A); experiment: fluorescence polarization
T1 sequence: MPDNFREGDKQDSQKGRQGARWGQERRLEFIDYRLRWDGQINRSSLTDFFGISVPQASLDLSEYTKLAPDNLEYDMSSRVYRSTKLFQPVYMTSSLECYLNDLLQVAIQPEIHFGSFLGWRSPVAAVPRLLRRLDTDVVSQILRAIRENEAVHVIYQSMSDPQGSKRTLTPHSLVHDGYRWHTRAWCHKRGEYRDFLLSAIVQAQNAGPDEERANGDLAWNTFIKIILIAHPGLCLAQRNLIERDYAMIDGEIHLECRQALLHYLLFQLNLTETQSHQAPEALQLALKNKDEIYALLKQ

Ec CapW S158E [3] = molecular target: T2, Ec CapW S158E (Escherichia coli upec-117, UniProt P0DX76 1-299, S158E); experiment: fluorescence polarization
T2 sequence: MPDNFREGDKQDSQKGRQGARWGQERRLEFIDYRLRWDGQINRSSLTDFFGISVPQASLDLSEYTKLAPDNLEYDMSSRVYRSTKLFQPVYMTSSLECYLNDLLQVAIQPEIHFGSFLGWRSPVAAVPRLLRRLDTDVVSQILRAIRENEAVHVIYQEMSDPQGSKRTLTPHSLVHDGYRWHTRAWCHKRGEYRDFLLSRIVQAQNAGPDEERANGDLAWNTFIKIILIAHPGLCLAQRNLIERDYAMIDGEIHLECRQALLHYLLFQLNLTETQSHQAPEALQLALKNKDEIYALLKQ

Ec CapW WT = molecular target: T3, Ec CapW WT (Escherichia coli upec-117, UniProt P0DX76 1-299); experiment: fluorescence polarization
T3 sequence: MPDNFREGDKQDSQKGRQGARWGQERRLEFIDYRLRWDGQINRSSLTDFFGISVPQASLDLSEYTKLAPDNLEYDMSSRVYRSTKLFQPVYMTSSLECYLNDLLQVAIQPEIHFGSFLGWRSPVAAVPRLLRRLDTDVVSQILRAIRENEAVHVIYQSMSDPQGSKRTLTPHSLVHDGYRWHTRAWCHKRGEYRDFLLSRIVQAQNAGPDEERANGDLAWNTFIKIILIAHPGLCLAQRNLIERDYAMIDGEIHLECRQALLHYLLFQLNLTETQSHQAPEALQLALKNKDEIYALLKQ

Ec CapW R200A [4] = molecular target: T1, Ec CapW R200A; experiment: fluorescence polarization; remark: listed apart in the source
Ec CapW S158E [5] = molecular target: T2, Ec CapW S158E; experiment: fluorescence polarization; remark: listed apart in the source
Rl CapW WT = molecular target: T4, Rl CapW WT (Rhizobium leguminosarum, UniProt PDB:9C5G_1 1-299); experiment: X-ray crystallography
T4 sequence: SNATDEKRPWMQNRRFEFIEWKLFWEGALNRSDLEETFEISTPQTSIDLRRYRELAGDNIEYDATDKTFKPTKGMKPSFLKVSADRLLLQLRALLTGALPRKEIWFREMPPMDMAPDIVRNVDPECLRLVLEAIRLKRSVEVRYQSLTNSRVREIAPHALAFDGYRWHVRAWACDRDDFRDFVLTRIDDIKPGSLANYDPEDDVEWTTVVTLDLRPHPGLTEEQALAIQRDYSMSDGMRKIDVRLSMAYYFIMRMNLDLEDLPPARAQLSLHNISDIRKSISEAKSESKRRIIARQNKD

“CapW from Rhizobium leguminosarum (natural protein)” was tested, and the stoichiometry N [1] was 2.

TTTTTTT (ssDNA) [7mer poly-T, FAM]: no binding (Ec CapW R200A [2]); no binding (Ec CapW S158E [3]).

AAAAAAA (ssDNA) [7mer poly-A]: no binding (Ec CapW WT).

B1: CapW 30 bp palindromic binding site (dsDNA)
DNA 1: TAAAAACTGATCGTATAATAATGCTACGCT
DNA 2: AGCGTAGCATTATTATACGATCAGTTTTTA
B1: binds (Ec CapW R200A [4]); binds (Ec CapW S158E [5]).

UUUUUUU (ssRNA) [7mer poly-U RNA]: no binding (Ec CapW WT).

TTTTTTT (ssDNA) [7mer poly-T, unlabeled]: binds (Rl CapW WT).
